In US20150284437A1 (Harvard, published 2015):
One block for each binder: values may come before it. Non-standard residues stand in square brackets, D forms with d. No end group written: not given here. βAla = NCCC(=O)O

Biological target: T1, N-terminally GST-tagged human β-catenin (human, UniProt P35222 1-781, limits assumed)
T1 construct: not shown: N-terminal GST tag
T1 sequence (looked up): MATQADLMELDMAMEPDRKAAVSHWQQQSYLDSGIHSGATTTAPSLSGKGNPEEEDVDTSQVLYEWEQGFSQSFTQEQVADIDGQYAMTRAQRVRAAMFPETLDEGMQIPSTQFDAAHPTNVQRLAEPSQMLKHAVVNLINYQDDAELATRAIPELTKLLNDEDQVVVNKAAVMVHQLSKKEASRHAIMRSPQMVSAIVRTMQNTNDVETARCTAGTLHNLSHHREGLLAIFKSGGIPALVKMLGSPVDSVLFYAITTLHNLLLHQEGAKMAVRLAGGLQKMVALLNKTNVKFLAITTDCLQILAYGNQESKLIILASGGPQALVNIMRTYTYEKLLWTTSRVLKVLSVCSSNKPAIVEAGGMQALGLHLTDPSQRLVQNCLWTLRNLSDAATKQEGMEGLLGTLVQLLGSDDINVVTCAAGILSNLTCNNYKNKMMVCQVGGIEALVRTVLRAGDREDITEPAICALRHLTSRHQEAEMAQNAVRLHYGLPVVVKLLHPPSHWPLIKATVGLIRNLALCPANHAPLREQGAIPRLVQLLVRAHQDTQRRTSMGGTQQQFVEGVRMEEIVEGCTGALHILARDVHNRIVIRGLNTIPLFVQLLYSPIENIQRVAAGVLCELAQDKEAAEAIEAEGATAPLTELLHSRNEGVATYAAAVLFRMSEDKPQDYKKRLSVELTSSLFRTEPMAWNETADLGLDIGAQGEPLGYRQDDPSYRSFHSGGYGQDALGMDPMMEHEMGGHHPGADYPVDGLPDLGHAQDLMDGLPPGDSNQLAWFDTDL
Assay: fluorescence polarization; FITC-labeled peptide, GST-tagged human β-catenin
Description: Peptide sequences derived from TCF4 and Axin were synthesized and fluorescently labeled (FIG. 4b) and the affinity of both binding domains to β-catenin was assessed. The sequence of TCF4 was modified in such a way that the loop (9 amino acids; not visible in the crystal structure) between the extended region and the α-helix was replaced by two β-alanines (βAla). Labeled peptides and GST-tagged human β-catenin were used in a fluorescence polarization assay enabling the determination of the stability of these peptide/β-catenin complexes (FIG. 4c). […] Therefore, the Axin derivative was considered to be the most promising candidate for the hydrocarbon stapling approach.

Kd: 300 nM
B1: TCF4 derived peptide, fluorescently labeled (peptide, UniProt Q9NQB0 10-53, looked up)
peptide: DELISFKDEGEQE[βAla][βAla]ERDLADVKSSLVN
modifications: also: FITC label, place not given here
notes: A synthetic fragment, not the whole protein

Kd: ~5000 nM
B2: Axin wild type sequence peptide ax-WT, fluorescently labeled (peptide)
peptide: ENPESILDEHVQRVM
modifications: also: FITC label, site not given here
notes: also called axin-WT; Axin derived peptide
